We go through 41 sequences from the nanobody polyreactivity screen of Harvey et al. (2022).

The data set can be described thus: yeast display, Sf9 membrane polyspecificity reagent, FACS + sequencing; frameworks hold sequencing errors. The procedure, abridged:
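Synthetic nanobody libraries on Saccharomyces cerevisiae BJ5465 were galactose-induced for 36–48 hours, stained 1 hour at 4 °C with 10% biotinylated, detergent-solubilized Sf9 membrane reagent and enriched on streptavidin microbeads. FACS then separated cells into low and high (top ~1%) gates by anti-HA (expression) and streptavidin (reagent binding) fluorescence. Genes were colony-PCR amplified, MiSeq 2 × 250 sequenced and CDR-length filtered. A clone's polyreactivity label is that of its gate of origin.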
“QVQLVESGGGLVQAGGSLRLSCAASGSIYARNAMGWYRQAPGKERELVAAIRYSGGSTYYADSVKGRFTISRDNAKNTVYLQMNSLKPEDTAVYYCAARWGVFGYYYWGQGTQVTVSS”: the “polyreactivity (PSR sort gate)” value was “high polyreactivity”. As to “QVHLVESGGGLVQAGGSLRLSCAASGRIFAWNSMGWYRQAPGKERELVAAITYNGGSTYYADSVKGRFTISRDNAKNTVYLQMNSLKPEDTAVYYCNKVTRSPAQGYGYWGQGTQVTVSS”, the “polyreactivity (PSR sort gate)” value is recorded as “high polyreactivity”.

Take “QVQLVESGGGLVQAGGSLRLSCAASGFTFESNAIGWYRQAPGKERELVAAISSSGGSTYYADSVKGRFTISRDNAKNTVYLQMNSLKPEDTAVYYCNAYSLYYGGYDYWGQGTQVTVSS”: the “polyreactivity (PSR sort gate)” value is listed as “high polyreactivity”. With “QVQLVESGGGLVQAGGSLRLSCAASGSTFQINAMGWYRQAPGKERELVARNSGSGSRTYYADSVKGRFTISRYNAKNTVSLQMNSLKPEDTAVYYCAARGTGKGYDSWGQGTQVTVSS”, the “polyreactivity (PSR sort gate)” value is listed as “high polyreactivity”. In the case of “QVQQQESGGGLVQAGGSLRLSCAASGTIFQLTVMGRYRQAPGKERELVASIDYGGNTNYADSVKGRFTISRDNAKNTVYLQMNSLKPEDTAVYYCAASSDSWTTHPYWGQGTQVTVSS”, the “polyreactivity (PSR sort gate)” value is reported as “low polyreactivity”.

“QVQLVESGGGLVQAGGSLRLSCAASGITFYPYAMGWYRQAPGKERELVASISWSGGSTYYADSVKGRFTISRDNAKNTVYLQMNSLKPEDTAVFYCNAEYWLPYYPDYDYWGQGTQVTVSS”: the “polyreactivity (PSR sort gate)” value is on record as “low polyreactivity”. On to “QVQLVESGGGLVQAGGSLRISCAASGSIFVKNAMGWYRQAPGKEREFVAAITTSGGSTNYADSVKGRFTISRDNAKNTVYLQMNSLKPEDTAVYYCNTDIFPAAYDYWGQGTQVTVSS”, for which the “polyreactivity (PSR sort gate)” value is recorded as “low polyreactivity”. Consider “QVQLVESGGGLVQAGGSLRLSCAASGIIFVSYDMGWYRQAPGKERELVAAINRGGRTYYADSVKGRFTISRDNAKNTDYLQMNSLKPEDTAVYYCAAQFHFRPFSWTYDYWGQGTQVTVSS”, for which the “polyreactivity (PSR sort gate)” value is “high polyreactivity”. As for “QVQLVESGGGIVQAGGSLRLSCAAAGSNFTVYVMGWYRQAPGKERELVARISSDGSTNYADSVKGRFTISRDNAKNSVFLQMNSLKPEDTAVYYCNADFPFSGRRPWYNAYDYWGQGTQVTVSS”, the “polyreactivity (PSR sort gate)” value was “low polyreactivity”. Regarding “QVQLVESGGGLVQARGSLRLSCAASGIIFYPNAMGWYRQAPGKERELVASIRSGGITTYADSVKGRFTISRDNAKNTVYLQMNSLKPEDTAVYDCATRSYYRYATFAYYYWGQGTQVTVSS”, the “polyreactivity (PSR sort gate)” value is “high polyreactivity”. “QVQLVESGGGVVQAGGSLRLSCAASGSTFYSYAMGWYRQAPGKERELVAAISSGGGRTYYADSVKGRFTISRDNAKNTVYLQMNSLKPEDTAVYYCAASYWYRDYYYWGQGTQVTVSS”: the “polyreactivity (PSR sort gate)” value is given as “high polyreactivity”.

Regarding “QVQLEESGGGLVQAGGSLRLSCAASGITFRQYAMGWYRQAPGKERELVATISSGDDTYYADSVKGRFTISRDNAKNTVYLQMNSLKPEDTAVYYCAARYWTSIVRYRGDYWGQGTQVTVSS”, the “polyreactivity (PSR sort gate)” value is listed as “high polyreactivity”.

Take “QVQLVESGGGLVQAGGSLRLTCAASGRTFGLNTMGWYRQAPGKERELVAAISRRGGSTYYADSVKGRFTISRDNAKNTVYLQMNSLKPEDTAVYYCARTSYNRYDYWGQGTQVTVSS”: the “polyreactivity (PSR sort gate)” value is “high polyreactivity”. With “QVQLVESGGGLVQAGGSLRLSCAASGRTFTAYAMGWYRQAPGKERELVARITSVDSTNYADSVKGRFTISRDNAKNTVYLHMYSLKPDDTAVYYCNATFGYPFVDYDDYWGQVTQVTVSS”, the “polyreactivity (PSR sort gate)” value is listed as “low polyreactivity”.

For “QVQLVESGGGLVQAGGSLRLSCAASGSIFGGYAMGWYRQAPGKERELVAAISRTGGRTYYADSVKGRFTISRDNAKNTVYLQMNSLKPEDTAVYYCAARVVHQSRYSYEYWGQGTQVTVSS”, the “polyreactivity (PSR sort gate)” value is recorded as “high polyreactivity”. On to “QVQLVDSGGGLVQAAGSLRLSCAASGSIFIFNTMGWYRQAPGKESELVASISSSGSTYYADSVKGRFTISRDNAKNTVYLQMKSLKPEDTAVYYCAATYYRPAYYGSYYYWGQGTQVTVSS”, for which the “polyreactivity (PSR sort gate)” value is on record as “low polyreactivity”. With “QVQLVESGGGLVQAGRSHRLSCAASGSTYANTMGWYIQAPGKERELDAAITYTGGSTYYADSVKGRFTISRDNAKNTVYLQMNSLKPEDTAVYYCAADAQAPPGGFKEYDYWGQGTQVTVSS”, the “polyreactivity (PSR sort gate)” value is given as “low polyreactivity”. Take “QVQLVESGGGLVQAGGSLRLSCAASGSIFANAMGWYRQAPGKEREVVAAISFSGGRTFYADSVKGRFTISRDNAKNTVYLQMNSLKPEDTAVYYCAKGKKSSRSGIYNYWGQGTQVTVSS”: the “polyreactivity (PSR sort gate)” value is “high polyreactivity”.

Consider “QVQLVESGGGLVQAGGSLRLSCAASGFTFYKNTMGWYRPEPGKERELVAAISSSGSSTYYADSVKGRFRISRDNAKNTVYLLMNSLKPEDTAVYYCAAGRFAYHDDYWGQGTQVTVSS”, for which the “polyreactivity (PSR sort gate)” value was “high polyreactivity”. For “QVQLVESGGGLVQAGGSLRLSCAASGSTFRYYTMGWYRQAPGKERELVAAITYSGGSTYYADSVKGRFTISRDNAKNTVYLQMNSLKPEDTAVYYCAKRWSQPKYDYWGQGTQVTVSS”, the “polyreactivity (PSR sort gate)” value is listed as “high polyreactivity”.

On to “QVQLVESGGGLVQAGGSLRLSCAASGVYAMGWYRQAPGQEREWVAAITSVGSTNYADSVKGRFTISRDNAKNTVYLQMNSLKPEDTAVFYCNTDRDTDELDYWGQGTQVTVSS”, for which the “polyreactivity (PSR sort gate)” value is listed as “low polyreactivity”. For “QVQLVESGGGLVQAGGILRLSCAASGSIFPYYAMGWYRQAPGKERELVATITSRGGSTYYADSVKGRFTISRDNAKNTVYLQMNSLKPEDTAVYYCNTLQPYLYDYWGQGTQVTVSS”, the “polyreactivity (PSR sort gate)” value is recorded as “high polyreactivity”. “QVQLVESGGGLVQAGGSLRLSCAASGSIFFRNAMGRYRPAPGKERELVAAISKSGGSTYYADSVKGRFTISRDNAKNTVYLQMNSLKPEDTAVYYCAAERTFLYWAYDYWGQGTQVTVSS”: the “polyreactivity (PSR sort gate)” value is reported as “high polyreactivity”.

Consider “QVQLVESGGGLVQAGRTLRLSCAATGFIIVHNAMGWYRQPPGKERELVAAITSRGRTYYADSVKGRFTISRDHAKNTVYLQMNSLKPEDTAVYYCNPYWRGDYRYDSWGQGTQVTVSS”, for which the “polyreactivity (PSR sort gate)” value is listed as “high polyreactivity”. On to “QVQVVESGGALVQAGGSLRLSCAASGRIFSPYAMGWYRQAPGKESELVAAITSASSTYYADSVKGRFTISRDNAKNTVYLEMNRLKPEDTAVYYCAASYWRYGSAFDYWGQGTQVTVSS”, for which the “polyreactivity (PSR sort gate)” value is recorded as “high polyreactivity”.

As for “QVQHVESGGGLVQAGGSLRLSCAATGRIFTAYYAMGWYRQAPGKERELVASISSSGTSTYADSVKGRFTISRDNAKNTVYLQMNSLKPDDTAVYYCATRKLRTRRYDYGYWGQGTQVTVSS”, the “polyreactivity (PSR sort gate)” value is recorded as “low polyreactivity”. Regarding “QVQLVESGGGLVQAGGSLRLSCAASGRIFYGNAMGWYRQAPGKERELVASITSSGSTKYADSVKGRFTISRDNAKNTVYLQMNSLKPEDTAVYYCAASYTKRYDTYAGYDYWGQGTQVTVSS”, the “polyreactivity (PSR sort gate)” value was “low polyreactivity”.

As to “QVQLVESGGGLVQAGGSLRLSCAASGLTFPSNAMGWYRQAPGKERELVAAITSVGITYYADSVKGRFTISRDNAKNTVYLQMNSLKPEDTAVYYCNAPPGGGWYARDDNWGQGTQVTVSS”, the “polyreactivity (PSR sort gate)” value is listed as “low polyreactivity”. For “QVQLVESGGGLVQAGGSLRLSCAASGRTFPYNDMGWYRQAPGKERQLVAGISLSGGSTFYADSVKGRFTISRDNAKKTVYLQRNSLKAEDTAVYYCNAPGGRYVWTDDYDYWGQGTQVTVSS”, the “polyreactivity (PSR sort gate)” value is reported as “high polyreactivity”. For “QVQLVESGGGLVQAGGSLRLSCAASGSIFDFYGMGWYRQAPGKERELVATITGTGGGTYYADSVKGRFTISRDNAKNTVYLQMNSLKPEDTAVYYCAADYPYGYWRGLFYYWGHGTQVTVSS”, the “polyreactivity (PSR sort gate)” value is “low polyreactivity”.

Regarding “QVQLVESGGGLVQAGGSLRLSCAASGSIFSRNVMGWSRQAPGKERELVAGISWRGGRTYYADSVKGRFTISRDNAMITVYLQMTSLKPEDTAVYYCAKGGVSYGEGDYWGQGTQVTVSS”, the “polyreactivity (PSR sort gate)” value was “high polyreactivity”. In the case of “QVQLVESGGGLVQAGGSLRLSCAASGRTFQVNSMGWYRQAPGKERELVAALTKRGGSTSYADSVKGRFTFSRDNANNTFYLQMNSLIPEDTAVYYCNVDYWGQGTQVTLSS”, the “polyreactivity (PSR sort gate)” value is “low polyreactivity”. For the sequence “QVQLVESGGGLVQAGGSLRLSCAASGFIFTYYAMGWYRQAPGKERELVAAISSRGTSTYYADSVKGRFTISRDNAKNTVYLQMNSLKPEDTAVYYCAAGKPKIPDDDYWGQGTQVTVSS”, the “polyreactivity (PSR sort gate)” value is given as “high polyreactivity”. For “QVQLVESGVGLVQAGGSLRLSCAATGSIFRVNAMGWYRQAPGKERELVAGIRWRGGSTYYADSVKGRFTISRDNAKNTVYLQMNSLKPEDTAVYYCAARSYPFIATYGYWGQGTQVTVSS”, the “polyreactivity (PSR sort gate)” value is “high polyreactivity”. Take “QVQLVESGGGLVQAGGSLRFSCAASGGTFQGNAMGWYRQAPGKEREFVATITRGGGSTYYADSVKGRFTISRDNAKNTVYLQMNSLKPEDTAVYYCNAKPSYYQRYNYWGQGTQVTVSS”: the “polyreactivity (PSR sort gate)” value is listed as “high polyreactivity”. With “QVQLVESGGGLVQAGGSLRLSCAASGSIFGANAMGWYRQAPAKEWELVAAITRGGRTNYADSVKGRFTISRDNAKISVYLQMNSLKPEDTAVYYCNAAWGTGRWAGYISGGDWGQGTHVTVSS”, the “polyreactivity (PSR sort gate)” value is “high polyreactivity”.

Take “QVQLVESGGGLVQAGGSLRLSCAASGRTFYLNAMGWYRQAPGKERELVAAITSSGGRTYYADSVKGRFTISRDNAKNTVYLQMNSLKPEDTAVYYCAAVVSSKPSFYWGQGTQVTVSS”: the “polyreactivity (PSR sort gate)” value is “low polyreactivity”. Turning to “QDQLVESGGGLVQAGGSLRLSCAASGRIFYFNTMGWSRQAPGKERELVAAISKNGGSTYYADSVKGRFTISRDIAKNTVYLQMNSLKPEDTAVYYCAKTRRLSPYDYWGQGTQVTVSS”, the “polyreactivity (PSR sort gate)” value is recorded as “high polyreactivity”. In the case of “QVHLVESGGGLVQAGGSLRLSCAASGSIFYSYAMGWYRQAPGKERELVASINWSGASTYYADSVKGRFTISRDNAKNTVYLQMNSLKPEDTAVYYCAADWWGYDGRYDYWGQGTQVTVSS”, the “polyreactivity (PSR sort gate)” value is “high polyreactivity”. On to “QVQLEESGGGLVQAGGILRLSCAASGFTLVYYAMGSYRQAPGKERELVATISGNGGRTYYADSVKGRFTISRDNAKNTDNLQMNSLKPEDTAVYYCAALLYIGSVGYDYWGQGTQVTVSS”, for which the “polyreactivity (PSR sort gate)” value is “low polyreactivity”. With “QVQLVESGGGLVQAGGSLRLSCAASGFTFRYYAMGWYRQAPGKERELVASISRSGSGTFYADSVKGRFTISRDNAKNTVYLQMNSLKPEDTAVYYCNAVSAAKIPFQKYGYWGQGTQVTVSS”, the “polyreactivity (PSR sort gate)” value is listed as “high polyreactivity”.
